{"source": "the nanobody polyreactivity screen of Harvey et al. (2022)", "data": [{"assay": "yeast display, Sf9 membrane polyspecificity reagent, FACS + sequencing; frameworks hold sequencing errors", "how_it_was_run": "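Synthetic nanobody libraries on Saccharomyces cerevisiae BJ5465 were galactose-induced for 36–48 hours, stained 1 hour at 4 °C with 10% biotinylated, detergent-solubilized Sf9 membrane reagent and enriched on streptavidin microbeads. FACS then separated cells into low and high (top ~1%) gates by anti-HA (expression) and streptavidin (reagent binding) fluorescence. Genes were colony-PCR amplified, MiSeq 2 × 250 sequenced and CDR-length filtered. A clone's polyreactivity label is that of its gate of origin.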", "values": [{"sequence": "QVQLVESGGGLVQAGGSLRLSCAASGRIFPGYAMGWYRQAPGKERELVAAISGSGVRTYYADSVKGRFTISRDNAKNTFYLQMNSLKPEDTAVYYCAADSKIRTKLDYWGQGTQVTVSS", "polyreactivity (PSR sort gate)": "low polyreactivity"}, {"sequence": "QVQLVESGGGLVQAGGSLRLSCAASGRIFPGYAMGWYRQAPGKERELVAGITWRTARTYYADSVKGRFTISRDNAKNTVYLQMNSLKPEDTAVYYCAAKYARYGRHVIFDYWGQGTQVTVSS", "polyreactivity (PSR sort gate)": "high polyreactivity"}, {"sequence": "QVQLVESGGGLVQAGGSLRLSCAASGRIFPGYAMGWYRQAPGKERELVASIRWSGDSTYYADSVKGRFTISRDNAKNTVYLQMNSLKPEDTAVYYCNRRWYRGDYWGQGTQVTVSS", "polyreactivity (PSR sort gate)": "low polyreactivity"}, {"sequence": "QVQLVESGGGLVQAGGSLRLSCAASGRIFPHYAMGWYRQAPGKERELVAAISRSGVSTYYADSVKGRFTISRDNAKNTVYLQMNSLKPEDTAVYYCNIVRYSFLYSVTYNYWGQGTQVTVSS", "polyreactivity (PSR sort gate)": "high polyreactivity"}, {"sequence": "QVQLVESGGGLVQAGGSLRLSCAASGRIFPLYTMGWYRQAPGKERELVAAITSIGGSTYYADSVKGRFTISRDNAKNTVYLQMNSLKPEDTAVYYCNAQYRPLTSWYKMDYWGQGTQVTVSS", "polyreactivity (PSR sort gate)": "high polyreactivity"}, {"sequence": "QVQLVESGGGLVQAGGSLRLSCAASGRIFPNAMGWYRQAPGKERELVAAISWSGVTTTYADSVKGRFTISRDNAKNTVYLQMNSLKPEDTAVYYCAARYWAYGYWGQGTQVTVSS", "polyreactivity (PSR sort gate)": "high polyreactivity"}, {"sequence": "QVQLVESGGGLVQAGGSLRLSCAASGRIFPPNAMGWSRQAPGKERELVAAITRGGSTYYADSVKGRFTISRDNAKNTVYLQMNSLKPEDTAVYYCATVPWYIKVGQKRNDYWGQGTQVTVSS", "polyreactivity (PSR sort gate)": "high polyreactivity"}, {"sequence": "QVQLVESGGGLVQAGGSLRLSCAASGRIFPPNAMGWYRQAPGKERELVAAITRGGSTNYADSVKGRFTISRDNAKNTVYLQMNSLKPEDTAVYYCAARGLRRQAPFYYWGQGTQVTVSS", "polyreactivity (PSR sort gate)": "high polyreactivity"}, {"sequence": "QVQLVESGGGLVQAGGSLRLSCAASGRIFPPNAMGWYRQAPGKERELVAGITPSGDTTYYADSVKGRFTISRDNAKNTVYIQMNSLKPEDTAVYYCAKDEVYADDRSALFDYWGQGTQVTVSS", "polyreactivity (PSR sort gate)": "low polyreactivity"}, {"sequence": "QVQLVESGGGLVQAGGSLRLSCAASGRIFPPNAMGWYRQAPGKERELVAGITSSGDTTYYADSVKGRFTISRDNAKNTDYLQMNSLKPEDTAVYYCAKDEVYADDRSALFDYWGQGTQVTVSS", "polyreactivity (PSR sort gate)": "low polyreactivity"}, {"sequence": "QVQLVESGGGLVQAGGSLRLSCAASGRIFPPYGMGWYRQAPGKERELVAGITSDGSTNYADSVKGRFTISRDNAKNTVYLQMNSLKPEDTAVYFCAADQGSWYYYPVYYYGGDYWGQGTQVTVSS", "polyreactivity (PSR sort gate)": "low polyreactivity"}, {"sequence": "QVQLVESGGGLVQAGGSLRLSCAASGRIFPRNVMGWYRQAPGKERELVAAISSRGTRTYYADSVKGRFTISRDNAKNTVYLQMYSLKPEDTAVYYCAADGPYEGYDYWGQGTQVTVSS", "polyreactivity (PSR sort gate)": "high polyreactivity"}, {"sequence": "QVQLVESGGGLVQAGGSLRLSCAASGRIFPRYAMGWYTQAPGKERELVAAITTGGSTYADSVKGRFTISRDNAKNTVYLQMNSLKPEDTAVYYCGVDGYVAFSPDRNNYWGQGTQVTVSA", "polyreactivity (PSR sort gate)": "low polyreactivity"}, {"sequence": "QVQLVESGGGLVQAGGSLRLSCAASGRIFPSNAMGWYRQAPGKERELVAAISVSGGSTYYADSVKGRFTISRDNAKNTVYLQMNSLKPEDTAVYYCAVRAWDPYTGKSDYWGQGTQVTVSS", "polyreactivity (PSR sort gate)": "low polyreactivity"}, {"sequence": "QVQLVESGGGLVQAGGSLRLSCAASGRIFPSYAMGSSRQAPGKEREFVAAITWSGTDTYYADSVQGRFTISRDNAKNTVYLQMTSLKPEDTAVYYCAAEEYVEVDTTAYDYWGQGTQVTVSS", "polyreactivity (PSR sort gate)": "low polyreactivity"}, {"sequence": "QVQLVESGGGLVQAGGSLRLSCAASGRIFPSYAMGWYRQAPGKERELVAAISSSSAGTYYADSVKGRFTISRDNAKNTVYLQMNSLKPEDTAVYYCAAASARYRQYKSYYYWGQGTQVTVSS", "polyreactivity (PSR sort gate)": "high polyreactivity"}, {"sequence": "QVQLVESGGGLVQAGGSLRLSCAASGRIFPSYAMGWYRQAPGKERELVATISSGGRTYYADSVKGRFTISRDNAKNTVYLQMNSLKPEDTEVYYCNADRTQDRNPYTYATFDYWGQGTQVTVSS", "polyreactivity (PSR sort gate)": "low polyreactivity"}, {"sequence": "QVQLVESGGGLVQAGGSLRLSCAASGRIFPTNAMGWYRQAPGKERELVAAIPVSGGSTYYADSVKGRFTISRDNAKKTVYLQMNSLKPEDTAVYYCAVDDRASVGSRLDHWGQGTQVTVSS", "polyreactivity (PSR sort gate)": "low polyreactivity"}, {"sequence": "QVQLVESGGGLVQAGGSLRLSCAASGRIFPVNAMGRYRQAPGKERELVATISSGDITNYADSVKGRFTISRDNAKNTVYLQMNSLKPEDTAVYYCNADTSYSEWGSWYYEYDYWGQGTQVTVSS", "polyreactivity (PSR sort gate)": "low polyreactivity"}, {"sequence": "QVQLVESGGGLVQAGGSLRLSCAASGRIFPVYAMGWYRQATGKERELVATISYSGSSTYYADSVKGRFTISRDNAKNTVYLQMNSLKPEDTAVYYCNADAFGPPGVQYYYWGQGTQVTVSS", "polyreactivity (PSR sort gate)": "low polyreactivity"}, {"sequence": "QVQLVESGGGLVQAGGSLRLSCAASGRIFPVYVMGWYRQAPGKEREFVASISWRGGSTFYADSVKGRFTISRDNAKNTVYLQMNSLKPEDTAVYYCAADYWSSDSSRGTMYYWGQGTQVTVSS", "polyreactivity (PSR sort gate)": "low polyreactivity"}, {"sequence": "QVQLVESGGGLVQAGGSLRLSCAASGRIFPYNAMGWYRPAPGKEREFVAAITWSGGSTYYADSVKGRFTISRDNAKNTVYLQMNCLKPEDTAVYYCAIRYPWQYNYWGQGTQVTVSS", "polyreactivity (PSR sort gate)": "high polyreactivity"}, {"sequence": "QVQLVESGGGLVQAGGSLRLSCAASGRIFPYNAMGWYRQAPGKERELVAAINWSGGSTYYADSVKGRFTISRDNAKNTVYLQMNSLKPEDTAVYYCAAVYRYNSDPDYDYWGQGTQVTVSS", "polyreactivity (PSR sort gate)": "high polyreactivity"}, {"sequence": "QVQLVESGGGLVQAGGSLRLSCAASGRIFPYYAMGWYRQAPGKERELVAAINWRGTRTYADSVKGRFTLSRDNAKNTVYLQMNSLKPEDTEVYYCAARTLYFSKYDYWGQGTQVTVSS", "polyreactivity (PSR sort gate)": "high polyreactivity"}, {"sequence": "QVQLVESGGGLVQAGGSLRLSCAASGRIFPYYAMGWYRQAPGKERELVAAITSGGTTYYADSVKGRFTISRDNAKNTVYLQMNSLKPEDTAVYYCNAVGTPVKISTDRGYWGQGTQVTVSS", "polyreactivity (PSR sort gate)": "low polyreactivity"}, {"sequence": "QVQLVESGGGLVQAGGSLRLSCAASGRIFPYYAMGWYRQAPGKERELVATITSGGSTYYADSVKGRFTISRDNAKNTVYLQMNSLKPEDTAVYYCAARYPSIYFYRYDYWGQGNQVTVSS", "polyreactivity (PSR sort gate)": "high polyreactivity"}, {"sequence": "QVQLVESGGGLVQAGGSLRLSCAASGRIFPYYAMGWYRQAPGKERELVAVISTRGGSTYYADSVKGRFTISRDNAKNTVYLQMNSLKPEDTAVYYCAAKSVYRMGYWGQGTQVTVSS", "polyreactivity (PSR sort gate)": "high polyreactivity"}, {"sequence": "QVQLVESGGGLVQAGGSLRLSCAASGRIFPYYVMGWYRQAPGKERELVAAISRSGSSTYYADSVKGRFTISRDNAKNTVYLQMNSLKPEDTAVYYCAADYNWSPYYTRGDYWGQGTQVTVSS", "polyreactivity (PSR sort gate)": "high polyreactivity"}, {"sequence": "QVQLVESGGGLVQAGGSLRLSCAASGRIFQINAMGWYRQAPGKERELVAAISWSDDTTYYADSVKGRFTISRDNAKNTVYLQMISLKPEDTAVYYCAAERGQDYSYSGDDDYWGQGTQVTVSS", "polyreactivity (PSR sort gate)": "high polyreactivity"}, {"sequence": "QVQLVESGGGLVQAGGSLRLSCAASGRIFQIYAMGWYRQAHGKERELVAAISSGGTTYYADSVKGRFTISRDNAKYTVYLLMNSLKPEDTAVYYCADASGYYRYDYWGQGTQVTVSS", "polyreactivity (PSR sort gate)": "high polyreactivity"}, {"sequence": "QVQLVESGGGLVQAGGSLRLSCAASGRIFQIYAMGWYRQAPGKERELVAAISGSTSYADSVKGRFTISRDNAKNTVYLQMNCLKPEDSAVYDCSALSLLPNGEYWGQGSQVTVSS", "polyreactivity (PSR sort gate)": "low polyreactivity"}, {"sequence": "QVQLVESGGGLVQAGGSLRLSCAASGRIFQIYAMGWYRQAPGKERELVAAISNRGGSTYYADSVKGRFTISRDNAKNTVYLQMNSLKPEDTAVYYCNATTGYGGYNYWGQGTQVTVSS", "polyreactivity (PSR sort gate)": "low polyreactivity"}, {"sequence": "QVQLVESGGGLVQAGGSLRLSCAASGRIFQIYAMGWYRQAPGKERELVATISSGTRTYYADSVKGRFTISRDNAKNTVYLQMNSLKPEDTAVYYCNTGLVYGYDYWGQGTQVTVSS", "polyreactivity (PSR sort gate)": "high polyreactivity"}, {"sequence": "QVQLVESGGGLVQAGGSLRLSCAASGRIFQKNAMGWNIQAPGKERELVAVISWSDGSTNYADSVKGRFTISRDNAKNTVYLQMNSLKPEDTAVYYCNAAPLEGTLYDSWGQGTQVTVSS", "polyreactivity (PSR sort gate)": "low polyreactivity"}, {"sequence": "QVQLVESGGGLVQAGGSLRLSCAASGRIFQKNAMGWYRQPPGKERELVAAISGSGSTTNYADSVKGRFTISRDNAKNTVDLQMNSLKPEDTAVFYCGTGKRGVSGRGFRYDYWGQGTQVTVSS", "polyreactivity (PSR sort gate)": "high polyreactivity"}, {"sequence": "QVQLVESGGGLVQAGGSLRLSCAASGRIFQKYAMGWSRQAPGKERELVAAISYGGGRTYYADSVKGRFTISRDNAKNTVYLQMNSLKPEDTAVYYCATDYKYAAPTVIESDYWGQGTQVTVSS", "polyreactivity (PSR sort gate)": "high polyreactivity"}, {"sequence": "QVQLVESGGGLVQAGGSLRLSCAASGRIFQPYALGWYRQAPGKEREWVAAITRRAGSTYYADSVQGRFTISRDNAKNTVYLQMNSLKPDDTAVYYCAARGLYWAYEMEYWGQGTQVTVSS", "polyreactivity (PSR sort gate)": "low polyreactivity"}, {"sequence": "QVQLVESGGGLVQAGGSLRLSCAASGRIFQPYAMGWYRPAPGKDRELVAAITRRAGSTYYADSVKGRFTISRDNAKYTVYLQMNSLKPEDTAVYYCAARGLYWAYEMEYWGQGTQVTVSS", "polyreactivity (PSR sort gate)": "low polyreactivity"}, {"sequence": "QVQLVESGGGLVQAGGSLRLSCAASGRIFQPYAMGWYRQAPGKERELVARITSGGSTYADSVKGRFTISRDNAKNTVYLQMNSLKPEDTAVYYCAVRYPWYYRGYAYDYWGQGTQVTVSS", "polyreactivity (PSR sort gate)": "high polyreactivity"}, {"sequence": "QVQLVESGGGLVQAGGSLRLSCAASGRIFQRNAMGWYRQAPGKEREFVAAITKSGGGTYADSVKGRFTISRDNAKNTVYLQMISLKPEDTAVYYCNVVPVWRPYSLINWQKHFGYWGQGTQVTVSS", "polyreactivity (PSR sort gate)": "high polyreactivity"}, {"sequence": "QVQLVESGGGLVQAGGSLRLSCAASGRIFQRNVMGWYRQAPGKERELVAAITGSGGSTYYADSLKGRFTISRDNAKNTVYLQMNSLKPEYTAVYYCAAKVYRGYDYWGQGTQVTVSS", "polyreactivity (PSR sort gate)": "high polyreactivity"}, {"sequence": "QVQLVESGGGLVQAGGSLRLSCAASGRIFQRYAMGWYRQAPGKERELVAAISSSGTTYYADSVKGRFTISRDNAKNTVYLQMNSLKPEDTAVYYCAATYYTSRISRRYGYWGQGTQVTVSS", "polyreactivity (PSR sort gate)": "high polyreactivity"}, {"sequence": "QVQLVESGGGLVQAGGSLRLSCAASGRIFQRYTMGWYRQAPGKEREFVAAITYSGGSTHYADSVKGRFTISRDNAKNTVYLQMNSLKPEDTAVYYCIADRYYGRGYGYWGQGTQVTVSS", "polyreactivity (PSR sort gate)": "low polyreactivity"}]}]}
